Assay results from patent US6348311B1, “ATM kinase modulation for screening and therapies” (St. Jude Childre's Research Hospital, priority 1999, dated 2002).

Columns and labels:
ATM kinase [1] = test: ATM immunoprecipitated from SY5Y neuroblastoma cells after IGF-I, in vitro kinase assay with GST-p53; format: cell-based; settings: differentiated SY5Y cells, 10nM IGF-I
Protocol: Since the growth factor and survival factor insulin-like growth factor (IGF)-I activates cellular signaling in a manner similar to insulin, the insulin observations above led us to also investigate whether IGF-I might activate ATM kinase. […] Undifferentiated and differentiated SY5Y cells were treated with IGF-I and ATM activation was assessed.
ATM was immunoprecipitated from either undifferentiated or differentiated SY5Y neuroblastoma cells after treatment with 10nM IGF-I (control cells were untreated). The immunoprecipitated ATM was then used in an in vitro kinase assay with the GST-p53 protein as the substrate. Equivalent amounts of ATM and GST-p53 were used.

ATM kinase [2] = test: ATM immunoprecipitated from differentiated 3T3-L1 cells with or without insulin, in vitro kinase assay with GST-4E-BP1; format: cell-based; settings: GST-4E-BP1 substrate
Text: ATM was immunoprecipitated from 3T3-L1 after differentiation and without (−) or with (+) exposure to insulin. The immunoprecipitated ATM was then used in an in vitro kinase assay with GST-4E-BP1 protein as the substrate. Equivalent amounts of ATM and GST-4E-BP1 were used.

4E-BP1 bound to eIF-4E = test: Insulin induced release of 4E-BP1 from eIF-4E in fibroblasts (Western blot); format: cell-based, mice
Protocol: Fibroblasts from normal or AT mice were treated with (+) or without (−) insulin and total cellular and complexed eIF-4E and 4E-BP1 were examined by Western blot. Total cellular eIF-4E and 4E-BP1 were unchanged by insulin treatment. The amount of 4E-BP1 bound to eIF-4E was examined by immunoprecipitating eIF-4E with a methyl-G column and then blotting for both proteins.

Substance | ATM kinase activity after IGF-I treatment (ATM kinase [1]) | ATM kinase activity after insulin treatment (ATM kinase [2]) | release of 4E-BP1 from eIF-4E (4E-BP1 bound to eIF-4E; AT cells (A38)) | release of 4E-BP1 from eIF-4E (4E-BP1 bound to eIF-4E; normal cells (A29))
IGF-I: insulin-like growth factor (IGF)-I, growth and neuronal survival factor | significantly enhanced | – | – | –
Insulin: insulin | – | significantly enhanced | much less 4E-BP1 was released | caused a release of 4E-BP1 from eIF-4E
